Results as given in paper PMC5224880, “Discovery and Molecular Basis of a Diverse Set of Polycomb Repressive Complex 2 Inhibitors Recognition by EED” (PLoS ONE, 2017).

Target: T1, EED, comprising residues 76–441 (TEV-cleaved, used for crystallization) (human, UniProt O75530 76-441)
T1 construct: EED (embryonic ectoderm development), human, residues 76-441, cloned into pGEX-KG; The EED in PDB 5H13 (no EZH2 peptide) was cleaved with thrombin instead of TEV; also called embryonic ectoderm development; TEV-cleaved EED protein; source: E. coli BL21-CodonPlus(DE3)-RIL, purified (Glutathione Sepharose 4B, TEV cleavage, Ni2+-NTA flow-through, Superdex 75); not shown: GST, N-terminal, cleaved
Assay: crystal structure; TEV-cleaved EED (76-441) mixed with EZH2 peptide at molar ratio 1:2.5; EED-EBD crystals soaked with EED709, EED666 or EED210 (0.1 M Tris pH 8.0, 16% PEG 8000, 20°C) or co-crystallised with EED162 (0.1 M Bis-Tris pH 6.0, 0.2 M MgCl2, 20% PEG 3350)
Details: both partners purified

T1 sequence (O75530 76-441): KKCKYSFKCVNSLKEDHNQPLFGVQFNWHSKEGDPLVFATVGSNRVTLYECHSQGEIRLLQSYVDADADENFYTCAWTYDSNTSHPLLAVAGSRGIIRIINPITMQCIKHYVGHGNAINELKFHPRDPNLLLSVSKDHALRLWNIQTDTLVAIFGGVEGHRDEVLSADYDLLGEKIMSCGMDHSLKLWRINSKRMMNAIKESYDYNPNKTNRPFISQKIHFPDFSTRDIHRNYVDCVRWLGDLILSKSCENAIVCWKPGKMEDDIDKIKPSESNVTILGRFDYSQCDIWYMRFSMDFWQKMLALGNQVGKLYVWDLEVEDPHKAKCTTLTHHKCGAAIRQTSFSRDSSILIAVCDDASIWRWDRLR

binding result: binds
B1: EZH2 peptide (residues 40–68, EBD) (peptide)
peptide: KSMFSSNRQKILERTEILNQEWKQRRIQPV
notes: EZH2 (Enhancer of zeste homolog 2), human; Printed as NH2-...-CO2H (free ends); also called EBD peptide; EZH2 peptide (40–68); source: synthetic peptide (GL Biochem)
